To fix the notation:
B3: recombinant human GDF5 variant W414R (ligand, UniProt P43026 28-501, looked up)
chain: APLATRQGKRPSKNLKARCSRKALHVNFKDMGRDDWIIAPLEYEAFHCEGLCEFPLRSHLEPTNHAVIQTLMNSMDPESTPPTCCVPTRLSPISILFIDSANNVVYKQYEDMVVESCGCR
notes: Growth and Differentiation Factor 5 (GDF5), human, recombinant protein with the patient mutation p.W414R; The mutation was found in a family with SYNS2 and BDA1 (c.T1240C); also called rhGDF5^W414R; GDF5^W414R; source: recombinant, provided by Biopharm GmbH, dissolved in 10 mM HCl

What all share (assay): SPR; BIA2000 system (Biacore); NOG and ectodomains of BMPR1A and BMPR1B immobilised, GDF5 proteins as analyte; apparent KD; mean of two experiments with at least six analyte concentrations
What all share (settings): both partners purified

One experiment deals with T1, NOGGIN (NOG) (UniProt Q13253 28-232).
T1 construct: NOGGIN (NOG), BMP antagonist
T1 sequence (looked up): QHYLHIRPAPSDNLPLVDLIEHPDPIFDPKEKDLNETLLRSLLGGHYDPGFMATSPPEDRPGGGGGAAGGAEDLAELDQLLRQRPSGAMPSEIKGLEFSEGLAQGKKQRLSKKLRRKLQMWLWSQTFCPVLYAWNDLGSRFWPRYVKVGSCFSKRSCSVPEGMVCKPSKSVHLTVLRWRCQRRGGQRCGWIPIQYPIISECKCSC

Experiment [1] concerns the target B3.
Experiment [2] addresses T2, BMP receptor type IA (BMPR1A) ectodomain (UniProt P36894 24-152).
T2 construct: BMP receptor type IA (BMPR1A), ectodomain

T2 sequence (P36894 24-152): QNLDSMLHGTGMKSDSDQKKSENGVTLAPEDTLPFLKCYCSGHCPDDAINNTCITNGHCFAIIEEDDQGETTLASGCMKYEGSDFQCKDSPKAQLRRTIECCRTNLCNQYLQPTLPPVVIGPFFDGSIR

B1: recombinant human GDF5 (Growth and Differentiation Factor 5), wild type (ligand, UniProt P43026 28-501, looked up)
chain: APLATRQGKRPSKNLKARCSRKALHVNFKDMGWDDWIIAPLEYEAFHCEGLCEFPLRSHLEPTNHAVIQTLMNSMDPESTPPTCCVPTRLSPISILFIDSANNVVYKQYEDMVVESCGCR
notes: Growth and Differentiation Factor 5 (GDF5), human, recombinant protein; also called rhGDF5; GDF5^wt; source: recombinant, provided by Biopharm GmbH, dissolved in 10 mM HCl
Take B1: the Kd with NOGGIN (NOG) amounted to 2 nM.

B2: BMP receptor type IB (BMPR1B) ectodomain (domain or fragment, UniProt O00238 14-126, looked up)
chain: KKEDGESTAPTPRPKVLRCKCHHHCPEDSVNNICSTDGYCFTMIEEDDSGLPVVTSGCLGLEGSDFQCRDTPIPHQRRSIECCTERNECNKDLHPTLPPLKNRDFVDGPIHHR
notes: BMP receptor type IB (BMPR1B), ectodomain
As for B2, the Kd in experiment [1] was found to be 3.3 nM.
For B3, the Kd in experiment [2] stood at 124 nM; with NOGGIN (NOG), 25.5 nM.

Values taken from PMC3789827, “A GDF5 Point Mutation Strikes Twice - Causing BDA1 and SYNS2” (PLoS Genetics, 2013).
